According to patent publication US20240410900A1:

Columns and labels:
[1] = biological target: non-targeted IgG-IL2 (interleukin-2 fused to the C-terminus of a heavy chain of a germline antibody, which is not binding to a target); assay: bridging ELISA, IgG-IL2-Bi and -Dig, binder 0.5 ng/mL assay / 10 ng/mL matrix
[2] = biological target: non-targeted IgG-IL2 (interleukin-2 fused to the C-terminus of a heavy chain of a germline antibody, which is not binding to a target); assay: bridging ELISA, IgG-IL2-Bi and -Dig, binder 1.0 ng/mL assay / 20 ng/mL matrix
[3] = biological target: non-targeted IgG-IL2 (interleukin-2 fused to the C-terminus of a heavy chain of a germline antibody, which is not binding to a target); assay: bridging ELISA, IgG-IL2-Bi and -Dig, binder 16 ng/mL assay / 313 ng/mL matrix
[4] = biological target: non-targeted IgG-IL2 (interleukin-2 fused to the C-terminus of a heavy chain of a germline antibody, which is not binding to a target); assay: bridging ELISA, IgG-IL2-Bi and -Dig, binder 31 ng/mL assay / 625 ng/mL matrix
[5] = biological target: non-targeted IgG-IL2 (interleukin-2 fused to the C-terminus of a heavy chain of a germline antibody, which is not binding to a target); assay: bridging ELISA, IgG-IL2-Bi and -Dig, binder 63 ng/mL assay / 1250 ng/mL matrix
[6] = biological target: non-targeted IgG-IL2 (interleukin-2 fused to the C-terminus of a heavy chain of a germline antibody, which is not binding to a target); assay: bridging ELISA, IgG-IL2-Bi and -Dig, binder 7.8 ng/mL assay / 156 ng/mL matrix
[7] = biological target: non-targeted IgG-IL2 (interleukin-2 fused to the C-terminus of a heavy chain of a germline antibody, which is not binding to a target); assay: bridging ELISA, IgG-IL2-Bi and -Dig, binder 125 ng/mL assay / 2500 ng/mL matrix
[8] = biological target: drug antibody (capture and tracer of the bridging immunoassay of FIGS. 2, 7 and 8; not named); assay: bridging immunoassay, drug antibody as capture and tracer, binder at 1000 ng/ml
[9] = biological target: TCB (T-cell bispecific format) drug antibody; assay: bridging ELISA, drug-Bi and drug-Dig, human pooled serum, binder 3.9 ng/mL assay / 78 ng/mL matrix
[10] = biological target: non-targeted IgG-IL2 (interleukin-2 fused to the C-terminus of a heavy chain of a germline antibody, which is not binding to a target); assay: as above
[11] = biological target: targeted IgG-IL2 (interleukin-2 fused to the C-terminus of a heavy chain of an antibody specifically binding to a therapeutic target); assay: as above
[12] = biological target: TCB (T-cell bispecific format) drug antibody; assay: bridging ELISA, drug-Bi and drug-Dig, human pooled serum, binder 31 ng/mL assay / 625 ng/mL matrix
[13] = biological target: non-targeted IgG-IL2 (interleukin-2 fused to the C-terminus of a heavy chain of a germline antibody, which is not binding to a target); assay: as above
[14] = biological target: targeted IgG-IL2 (interleukin-2 fused to the C-terminus of a heavy chain of an antibody specifically binding to a therapeutic target); assay: as above
[15] = biological target: TCB (T-cell bispecific format) drug antibody; assay: bridging ELISA, drug-Bi and drug-Dig, human pooled serum, binder 0.49 ng/mL assay / 10 ng/mL matrix
[16] = biological target: non-targeted IgG-IL2 (interleukin-2 fused to the C-terminus of a heavy chain of a germline antibody, which is not binding to a target); assay: as above
[17] = biological target: targeted IgG-IL2 (interleukin-2 fused to the C-terminus of a heavy chain of an antibody specifically binding to a therapeutic target); assay: as above
[18] = biological target: TCB (T-cell bispecific format) drug antibody; assay: bridging ELISA, drug-Bi and drug-Dig, human pooled serum, binder 63 ng/mL assay / 1250 ng/mL matrix
[19] = biological target: non-targeted IgG-IL2 (interleukin-2 fused to the C-terminus of a heavy chain of a germline antibody, which is not binding to a target); assay: as above
[20] = biological target: targeted IgG-IL2 (interleukin-2 fused to the C-terminus of a heavy chain of an antibody specifically binding to a therapeutic target); assay: as above
[21] = biological target: TCB (T-cell bispecific format) drug antibody; assay: bridging ELISA, drug-Bi and drug-Dig, human pooled serum, binder 0.03 ng/mL assay / 0.6 ng/mL matrix
[22] = biological target: non-targeted IgG-IL2 (interleukin-2 fused to the C-terminus of a heavy chain of a germline antibody, which is not binding to a target); assay: as above
[23] = biological target: targeted IgG-IL2 (interleukin-2 fused to the C-terminus of a heavy chain of an antibody specifically binding to a therapeutic target); assay: as above
[24] = biological target: TCB (T-cell bispecific format) drug antibody; assay: bridging ELISA, drug-Bi and drug-Dig, human pooled serum, binder 0.12 ng/mL assay / 2.4 ng/mL matrix
[25] = biological target: non-targeted IgG-IL2 (interleukin-2 fused to the C-terminus of a heavy chain of a germline antibody, which is not binding to a target); assay: as above
[26] = biological target: targeted IgG-IL2 (interleukin-2 fused to the C-terminus of a heavy chain of an antibody specifically binding to a therapeutic target); assay: as above

signal [AU] [1]: 0.0825 AU
signal [AU] [2]: 0.114 AU
signal [AU] [3]: 0.996 AU
signal [AU] [4]: 1.89 AU
signal [AU] [5]: 2.85 AU
signal [AU] [6]: 0.539 AU
signal [AU] [7]: 3.08 AU
signal-to-noise ratio (S/N) [8]: 83.6
signal [AU] [9]: 0.35 AU
signal [AU] [10]: 0.088 AU
signal [AU] [11]: 0.261 AU
signal [AU] [12]: 2.09 AU
signal [AU] [13]: 0.408 AU
signal [AU] [14]: 1.65 AU
signal [AU] [15]: 0.0835 AU
signal [AU] [16]: 0.045 AU
signal [AU] [17]: 0.0675 AU
signal [AU] [18]: 2.86 AU
signal [AU] [19]: 0.77 AU
signal [AU] [20]: 2.63 AU
signal [AU] [21]: 0.0455 AU
signal [AU] [22]: 0.0425 AU
signal [AU] [23]: 0.04 AU
signal [AU] [24]: 0.0555 AU
signal [AU] [25]: 0.0395 AU
signal [AU] [26]: 0.044 AU
B1: multivalent anti-PG antibody derived from clone 1.7.24 (mixed Pool 2, 3, 4) (antibody, V domains shown)
VH: EVKLLESGGGLVQPGGSLKLSCAASGFDFSRYWMNWVRQAPGKGLEWIGEITPDSSTINYTPSLKDKFIISRDNAKNTLYLQMIKVRSEDTALYYCVRPYDYGAWFASWGQGTLVTVSA
VL: QAVVTQESALTTSPGETVTLTCRSSTGAVTTSNYANWVQEKPDHLFTGLIGGTNKRAPGVPARFSGSLIGDKAALTITGAQTEDEAIYFCALWYSNHWVFGGGTKLTVL
modifications: lysine amines derivatised with SATP or MHS and cross-linked (sites not given)
